Measurements: patent publication US20150344570A1 (published 2015)

T1: FcgRIIaR (human, UniProt P12318 34-217)
T1 construct: extracellular domain; Allotype R131; also called FcγRIIa R; FcgRIIa type R; not shown: His tag attached to the C terminus
T1 sequence (looked up): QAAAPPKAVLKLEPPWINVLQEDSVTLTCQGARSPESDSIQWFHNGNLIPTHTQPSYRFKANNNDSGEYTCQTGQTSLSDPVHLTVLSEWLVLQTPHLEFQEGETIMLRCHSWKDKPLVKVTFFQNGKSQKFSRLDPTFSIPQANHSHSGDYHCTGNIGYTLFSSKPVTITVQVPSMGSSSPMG

T2: FcgRIIb (human, UniProt P31994 43-217)
T2 construct: extracellular domain; also called FcγRIIb; CD32B; not shown: His tag attached to the C terminus
T2 sequence (looked up): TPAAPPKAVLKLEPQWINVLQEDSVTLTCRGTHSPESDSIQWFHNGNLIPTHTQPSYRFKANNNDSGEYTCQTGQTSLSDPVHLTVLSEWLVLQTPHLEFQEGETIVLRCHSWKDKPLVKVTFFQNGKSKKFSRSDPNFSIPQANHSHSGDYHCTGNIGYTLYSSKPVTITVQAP

T3: FcgRIIaH (human, UniProt P12318 34-217)
T3 construct: extracellular domain; Allotype H131; also called FcγRIIa H; FcgRIIa type H; not shown: His tag attached to the C terminus
T3 sequence (looked up): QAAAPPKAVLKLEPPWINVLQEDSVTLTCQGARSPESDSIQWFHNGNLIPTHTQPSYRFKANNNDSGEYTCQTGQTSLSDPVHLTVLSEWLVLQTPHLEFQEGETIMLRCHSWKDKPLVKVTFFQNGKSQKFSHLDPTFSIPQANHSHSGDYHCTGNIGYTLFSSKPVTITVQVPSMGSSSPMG


Assays:
Assay in all cases: SPR (Biacore); KD of H240-Kn120/H240-Hl068/L73-k0 divided by KD of the sample
[1] = target: T1, FcgRIIaR
Method: (§1) Analysis of interaction between objective antibody and the FcγR was carried out using Biacore T100 (GE Healthcare), Biacore T200, Biacore A100, and Biacore 4000. HBS-EP+ (GE Healthcare) was used as the running buffer, and the measurement temperature was set to 25° C. Chips produced by immobilizing the antigen peptide by the amine coupling method to a Series S sensor Chip CM5 (GE Healthcare), chips produced by allowing preliminarily biotinylated antigen peptides to interact with and immobilize onto a Series S Sensor Chip SA (certified) (GE Healthcare), chips produced by immobilizing Protein L (ACTIGEN, BioVision) to Series S Sencor Chip CM5 (GE Healthcare), or chips produced by immobilizing Protein A/G (Thermo Scientific) to Series S Sencor Chip CM5 (GE Healthcare) were used. Antibodies of interest were captured onto these chips, and allowed to interact to each FcγR diluted with running buffer. To regenerate and repeatedly use the chip, the antibodies captured onto the chip were washed off by reacting 10 mM glycine-HCl, pH 1.5.

[2] = target: T4, FcgRIa (human, UniProt P12314 16-292)
T4 construct: extracellular domain; Soluble extracellular domain expressed in FreeStyle293 cells; also called FcγRIa; FcγRI; not shown: His tag attached to the C terminus
T4 sequence (P12314 16-292): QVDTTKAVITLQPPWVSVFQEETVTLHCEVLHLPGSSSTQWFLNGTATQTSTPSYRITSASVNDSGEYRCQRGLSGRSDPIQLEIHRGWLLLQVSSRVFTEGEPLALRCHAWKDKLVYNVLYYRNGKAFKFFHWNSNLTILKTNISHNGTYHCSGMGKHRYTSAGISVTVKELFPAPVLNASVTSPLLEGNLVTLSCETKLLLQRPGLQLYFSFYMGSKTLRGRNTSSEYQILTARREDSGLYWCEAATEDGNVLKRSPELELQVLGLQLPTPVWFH
Method: as §1

[3] = target: T5, FcgRIIIaF (human, UniProt P08637 17-208)
T5 construct: extracellular domain; Allotype F158; also called FcγRIIIa F; not shown: His tag attached to the C terminus
T5 sequence (P08637 17-208): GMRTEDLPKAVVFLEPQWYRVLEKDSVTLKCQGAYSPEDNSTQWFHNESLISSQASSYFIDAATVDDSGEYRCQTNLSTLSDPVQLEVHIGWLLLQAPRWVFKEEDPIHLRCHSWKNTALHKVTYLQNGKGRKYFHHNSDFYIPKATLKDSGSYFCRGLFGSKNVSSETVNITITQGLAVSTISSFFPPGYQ
Method: as §1

[4] = target: T2, FcgRIIb
Method: as §1

[5] = target: T3, FcgRIIaH
Method: as §1

[6] = target: T6, FcgRIIIaV (human, UniProt P08637 17-208)
T6 construct: extracellular domain; Allotype V158; also called FcγRIIIa V; not shown: His tag attached to the C terminus
T6 sequence (P08637 17-208 F176V limits assumed): as the sequence (P08637 17-208) above, with F160V counted along it
Method: as §1

relative KD [1]	relative KD [2]	relative KD [3]	relative KD [4]	relative KD [5]	relative KD [6]	Binder
0.7	1.1	4.3	1.2	0.7	10	H240-Kn120/H240-Hl174/L73-k0 (antibody, human IgG1, kappa, Heterodimerized anti-epiregulin IgG1 antibody; I332E in H240-Hl068) heavy 1: QDQLVQSGAEVKKPGASVKVSCKASGFNIKDTYIQWVRQAPGQGLEWMGRIDPLRKQTKYREKFEGRVTITADTSTNTAYMELSSLRSEDTAVYYCVRSGREFDYWGQGTLVTVSSASTKGPSVFPLAPSSKSTSGGTAALGCLVKDYFPEPVTVSWNSGALTSGVHTFPAVLQSSGLYSLSSVVTVPSSSLGTQTYICNVNHKPSNTKVDKKVEPKSCDKTHTCPPCPAPEYYWGPMVFLFPPKPKDTLMISRTPEVTCVVVDVSDEDPEVKFNWYVDGVEVHNAKTKPREEQYNATYRVVSVLTVLHQDWLNGKEYKCKVSNKDLPAPIEKTISKAKGQPREPQVCTLPPSRDELTKNQVSLWCLVKGFYPSDIAVEWESNGQPENNYKTTPPVLDSDGSFFLYSKLTVDKSRWQQGNVFSCSVMHEALHNHYTQKSLSLSP heavy 2: QDQLVQSGAEVKKPGASVKVSCKASGFNIKDTYIQWVRQAPGQGLEWMGRIDPLRKQTKYREKFEGRVTITADTSTNTAYMELSSLRSEDTAVYYCVRSGREFDYWGQGTLVTVSSASTKGPSVFPLAPSSKSTSGGTAALGCLVKDYFPEPVTVSWNSGALTSGVHTFPAVLQSSGLYSLSSVVTVPSSSLGTQTYICNVNHKPSNTKVDKKVEPKSCDKTHTCPPCPAPELLGGPSVFLFPPKPKDTLMISRTPEVTCVVVDVSHEEPEVKFNWYVDGVEVHNAKTKPREEQYNSTYRVVSVLTVLHQDWLNGKEYKCKVSNDALPKPEEETISKAKGQPREPQVYTLPPSRCELTKNQVSLSCAVKGFYPSDIAVEWESNGQPENNYKTTPPVLDSDGSFFLVSKLTVDKSRWQQGNVFSCSVMHEALHNHYTQKSLSLSP light: DIQMTQSPSSLSASVGDRVTITCRASQDIHKYIAWYQQKPGQAPRLLIQYTSTLQPGVPSRFSGSGSGTDYTFTISSLQPEDIATYYCLQYEQLRTFGGGTKVEIKRTVAAPSVFIFPPSDEQLKSGTASVVCLLNNFYPREAKVQWKVDNALQSGNSQESVTEQDSKDSTYSLSSTLTLSKADYEKHKVYACEVTHQGLSSPVTKSFNRGEC
0.5	0.9	0.7	0.6	0.5	1.2	H240-Kn120/H240-Hl182/L73-k0 (antibody, human IgG1, kappa, Heterodimerized anti-epiregulin IgG1 antibody; A231H in H240-Hl068) heavy 1: QDQLVQSGAEVKKPGASVKVSCKASGFNIKDTYIQWVRQAPGQGLEWMGRIDPLRKQTKYREKFEGRVTITADTSTNTAYMELSSLRSEDTAVYYCVRSGREFDYWGQGTLVTVSSASTKGPSVFPLAPSSKSTSGGTAALGCLVKDYFPEPVTVSWNSGALTSGVHTFPAVLQSSGLYSLSSVVTVPSSSLGTQTYICNVNHKPSNTKVDKKVEPKSCDKTHTCPPCPAPEYYWGPMVFLFPPKPKDTLMISRTPEVTCVVVDVSDEDPEVKFNWYVDGVEVHNAKTKPREEQYNATYRVVSVLTVLHQDWLNGKEYKCKVSNKDLPAPIEKTISKAKGQPREPQVCTLPPSRDELTKNQVSLWCLVKGFYPSDIAVEWESNGQPENNYKTTPPVLDSDGSFFLYSKLTVDKSRWQQGNVFSCSVMHEALHNHYTQKSLSLSP heavy 2: QDQLVQSGAEVKKPGASVKVSCKASGFNIKDTYIQWVRQAPGQGLEWMGRIDPLRKQTKYREKFEGRVTITADTSTNTAYMELSSLRSEDTAVYYCVRSGREFDYWGQGTLVTVSSASTKGPSVFPLAPSSKSTSGGTAALGCLVKDYFPEPVTVSWNSGALTSGVHTFPAVLQSSGLYSLSSVVTVPSSSLGTQTYICNVNHKPSNTKVDKKVEPKSCDKTHTCPPCPHPELLGGPSVFLFPPKPKDTLMISRTPEVTCVVVDVSHEEPEVKFNWYVDGVEVHNAKTKPREEQYNSTYRVVSVLTVLHQDWLNGKEYKCKVSNDALPKPIEETISKAKGQPREPQVYTLPPSRCELTKNQVSLSCAVKGFYPSDIAVEWESNGQPENNYKTTPPVLDSDGSFFLVSKLTVDKSRWQQGNVFSCSVMHEALHNHYTQKSLSLSP light: DIQMTQSPSSLSASVGDRVTITCRASQDIHKYIAWYQQKPGQAPRLLIQYTSTLQPGVPSRFSGSGSGTDYTFTISSLQPEDIATYYCLQYEQLRTFGGGTKVEIKRTVAAPSVFIFPPSDEQLKSGTASVVCLLNNFYPREAKVQWKVDNALQSGNSQESVTEQDSKDSTYSLSSTLTLSKADYEKHKVYACEVTHQGLSSPVTKSFNRGEC
1.1	1	0.6	1.2	1.6	0.8	H240-Kn138/H240-Hl068/L73-k0 (antibody, human IgG1, kappa, Heterodimerized anti-epiregulin IgG1 antibody; L328W in H240-Kn120) heavy 1: QDQLVQSGAEVKKPGASVKVSCKASGFNIKDTYIQWVRQAPGQGLEWMGRIDPLRKQTKYREKFEGRVTITADTSTNTAYMELSSLRSEDTAVYYCVRSGREFDYWGQGTLVTVSSASTKGPSVFPLAPSSKSTSGGTAALGCLVKDYFPEPVTVSWNSGALTSGVHTFPAVLQSSGLYSLSSVVTVPSSSLGTQTYICNVNHKPSNTKVDKKVEPKSCDKTHTCPPCPAPEYYWGPMVFLFPPKPKDTLMISRTPEVTCVVVDVSDEDPEVKFNWYVDGVEVHNAKTKPREEQYNATYRVVSVLTVLHQDWLNGKEYKCKVSNKDWPAPIEKTISKAKGQPREPQVCTLPPSRDELTKNQVSLWCLVKGFYPSDIAVEWESNGQPENNYKTTPPVLDSDGSFFLYSKLTVDKSRWQQGNVFSCSVMHEALHNHYTQKSLSLSP heavy 2: QDQLVQSGAEVKKPGASVKVSCKASGFNIKDTYIQWVRQAPGQGLEWMGRIDPLRKQTKYREKFEGRVTITADTSTNTAYMELSSLRSEDTAVYYCVRSGREFDYWGQGTLVTVSSASTKGPSVFPLAPSSKSTSGGTAALGCLVKDYFPEPVTVSWNSGALTSGVHTFPAVLQSSGLYSLSSVVTVPSSSLGTQTYICNVNHKPSNTKVDKKVEPKSCDKTHTCPPCPAPELLGGPSVFLFPPKPKDTLMISRTPEVTCVVVDVSHEEPEVKFNWYVDGVEVHNAKTKPREEQYNSTYRVVSVLTVLHQDWLNGKEYKCKVSNDALPKPIEETISKAKGQPREPQVYTLPPSRCELTKNQVSLSCAVKGFYPSDIAVEWESNGQPENNYKTTPPVLDSDGSFFLVSKLTVDKSRWQQGNVFSCSVMHEALHNHYTQKSLSLSP light: DIQMTQSPSSLSASVGDRVTITCRASQDIHKYIAWYQQKPGQAPRLLIQYTSTLQPGVPSRFSGSGSGTDYTFTISSLQPEDIATYYCLQYEQLRTFGGGTKVEIKRTVAAPSVFIFPPSDEQLKSGTASVVCLLNNFYPREAKVQWKVDNALQSGNSQESVTEQDSKDSTYSLSSTLTLSKADYEKHKVYACEVTHQGLSSPVTKSFNRGEC
